Test results published in PMC4470285, “A cell cycle-controlled redox switch regulates the topoisomerase IV activity” (Genes & Development, 2015).
Each block holds one molecule with its values, some of them ahead of it.

Key:
[1] = biological target: NstA(C8Y)-GFP (C. crescentus); assay: non-reducing SDS-PAGE with immunoblot; GFP fusions expressed from the xylX locus in C. crescentus; reducing against non-reducing SDS-PAGE; disulfide-linked dimer; also synchronized cells at 0 and 60 min
[2] = biological target: NstA-seGFP (C. crescentus); assay: not stated; cells overproducing NstA-seGFP, with or without 7.5 uM NEM (Supplemental Fig. S11B)
[3] = biological target: the molecule itself; assay: non-reducing SDS-PAGE with immunoblot; GFP fusions expressed from the xylX locus in C. crescentus; reducing against non-reducing SDS-PAGE; disulfide-linked dimer; also synchronized cells at 0 and 60 min

stoichiometry N [1]: 2
Molecule: NstA(C8Y)-GFP (natural protein)

stoichiometry N [2]: 2
Molecule: NstA-seGFP (natural protein)

B1: NstA-GFP (natural protein, C. crescentus, UniProt A0A0H3CC90 1-66, looked up)
chain: MQVFTFFCVESDGSVPRFDVTPCADDAAARVRAFELLDMHHRCDFVEVWRGAQRVFDVFAQQVAAA
notes: NstA (CCNA_03091), C. crescentus, predicted protein of 66 residues; also called functional C-terminal GFP version of wild-type NstA; xylX::Pxyl-nstA-gfp; source: wild-type C. crescentus, expressed from the xylX locus on the chromosome, in lysate; not shown: GFP, C-terminal, kept
stoichiometry N [3]: 2
